From PMC5391180 come the findings set out here.

For the test, the target named is actin filaments of MCF-7 cells, marked by Lifeact-RFP (human (endogenous in MCF-7)) (UniProt P60709). In words: FRET or BRET. (BRET reads energy transfer from a luciferase to a nearby fluorophore.)

Sequence of GFP-tagged nonmuscle myosin IIC1 (alternatively spliced isoform of nonmuscle myosin heavy chain IIC) (natural protein) (Q7Z406 2-1995): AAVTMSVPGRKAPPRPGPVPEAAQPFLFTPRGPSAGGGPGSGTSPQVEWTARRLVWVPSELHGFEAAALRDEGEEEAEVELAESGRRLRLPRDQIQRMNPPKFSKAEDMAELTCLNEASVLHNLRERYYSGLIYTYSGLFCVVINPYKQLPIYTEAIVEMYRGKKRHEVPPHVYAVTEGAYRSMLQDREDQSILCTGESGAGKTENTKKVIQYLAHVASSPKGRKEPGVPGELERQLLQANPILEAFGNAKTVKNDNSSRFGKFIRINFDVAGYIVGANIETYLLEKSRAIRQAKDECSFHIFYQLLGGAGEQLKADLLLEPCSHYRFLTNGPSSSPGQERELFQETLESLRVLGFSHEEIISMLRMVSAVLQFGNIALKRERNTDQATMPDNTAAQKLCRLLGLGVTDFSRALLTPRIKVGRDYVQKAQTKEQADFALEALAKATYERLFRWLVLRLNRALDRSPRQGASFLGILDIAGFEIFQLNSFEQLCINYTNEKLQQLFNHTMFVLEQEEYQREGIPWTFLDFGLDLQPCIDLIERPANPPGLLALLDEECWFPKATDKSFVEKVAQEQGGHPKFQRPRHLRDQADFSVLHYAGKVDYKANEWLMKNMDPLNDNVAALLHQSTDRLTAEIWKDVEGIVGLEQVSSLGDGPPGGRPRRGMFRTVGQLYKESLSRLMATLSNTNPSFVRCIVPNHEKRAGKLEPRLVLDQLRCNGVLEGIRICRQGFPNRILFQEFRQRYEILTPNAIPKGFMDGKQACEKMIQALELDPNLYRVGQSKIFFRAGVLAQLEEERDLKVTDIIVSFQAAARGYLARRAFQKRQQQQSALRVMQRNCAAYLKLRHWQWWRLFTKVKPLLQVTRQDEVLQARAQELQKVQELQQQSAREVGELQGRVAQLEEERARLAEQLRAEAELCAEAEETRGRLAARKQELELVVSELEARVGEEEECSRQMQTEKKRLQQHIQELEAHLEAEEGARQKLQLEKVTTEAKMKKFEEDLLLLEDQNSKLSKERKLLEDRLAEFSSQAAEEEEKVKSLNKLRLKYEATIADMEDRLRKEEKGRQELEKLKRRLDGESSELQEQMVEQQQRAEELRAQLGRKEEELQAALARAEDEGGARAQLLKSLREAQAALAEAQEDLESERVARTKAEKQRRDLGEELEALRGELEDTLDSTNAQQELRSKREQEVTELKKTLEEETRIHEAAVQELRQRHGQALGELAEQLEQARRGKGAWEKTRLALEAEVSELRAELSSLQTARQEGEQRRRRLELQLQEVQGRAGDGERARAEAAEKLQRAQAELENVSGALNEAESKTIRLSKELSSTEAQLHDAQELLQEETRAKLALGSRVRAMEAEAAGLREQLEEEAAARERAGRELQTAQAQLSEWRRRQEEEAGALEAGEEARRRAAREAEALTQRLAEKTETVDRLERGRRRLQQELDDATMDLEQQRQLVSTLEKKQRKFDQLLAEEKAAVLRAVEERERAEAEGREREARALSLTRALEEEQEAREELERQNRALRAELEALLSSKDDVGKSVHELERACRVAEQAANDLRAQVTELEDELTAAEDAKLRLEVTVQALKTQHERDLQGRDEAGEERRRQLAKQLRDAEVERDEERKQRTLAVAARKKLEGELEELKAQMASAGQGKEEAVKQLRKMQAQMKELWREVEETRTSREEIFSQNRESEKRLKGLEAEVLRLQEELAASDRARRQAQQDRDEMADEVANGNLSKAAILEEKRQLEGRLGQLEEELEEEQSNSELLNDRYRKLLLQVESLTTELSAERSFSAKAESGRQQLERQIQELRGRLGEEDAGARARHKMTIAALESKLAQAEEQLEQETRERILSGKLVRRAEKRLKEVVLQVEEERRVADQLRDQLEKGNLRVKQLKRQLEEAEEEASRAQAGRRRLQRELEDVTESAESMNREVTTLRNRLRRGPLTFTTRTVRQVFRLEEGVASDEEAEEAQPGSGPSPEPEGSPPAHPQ

“GFP-tagged nonmuscle myosin IIB (nonmuscle myosin heavy chain IIB, NMHC-IIB) (from UniProt P35580 1-1976) (natural protein)”: the dwell time tau, high-FRET state, bleb cortex amounted to 93 s; the longer average dwell time tau2, high-FRET state, cell cortex turned out to be 110 s; the shorter average dwell time tau1, high-FRET state, cell cortex is 35 s.

Substance “GFP-tagged nonmuscle myosin IIA (nonmuscle myosin heavy chain IIA, NMHC-IIA) (from UniProt P35579 1-1960) (natural protein)” registered a dwell time tau, high-FRET state, bleb cortex of 46 s and a shorter average dwell time tau1, high-FRET state, cell cortex of 33 s.

For the substance “GFP-tagged nonmuscle myosin IIC1 (alternatively spliced isoform of nonmuscle myosin heavy chain IIC) (natural protein)”, the shorter average dwell time tau1, high-FRET state, cell cortex amounted to 35 s.
